# Reference: publication PMC12678314, “Redox regulation of glutamate-1-semialdehyde aminotransferase modulates the synthesis of 5-aminolevulinic acid in Arabidopsis” (Frontiers in Plant Science, 2025)
# Target: the molecule itself
# Assay: native gel or EMSA; purified His-GSAATAt (300 µM), no pretreatment, non-reducing/non-denaturing polyacrylamide gel; dimer to monomers
protein,measurement,value
"recombinant His-tagged Arabidopsis glutamate-1-semialdehyde aminotransferase 1, wild type (enzyme, Arabidopsis thaliana GSAAT1 (AtGSA1, AT5G63570), mature protein without the transit peptide 1-38 according to UniProt P42799; pET-28a(+); the methods remove 1-38; also called His-GSAAT; His-GSAATAt; source: E. coli Rosetta, purified (Ni-NTA); not shown: His6, N-terminal, kept) not shown",stoichiometry N,2
